# Laboratory results: the domain aggregation screens of Martell et al. (2025)
# Assay: soluble fraction after stress (log2 fold change); higher = more stays soluble; pooled small domains, quantitative proteomics
# Settings: stress: 75 degC
# 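Also: 20 min heating vs room temperature control held 20 min.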
row,Sequence,soluble fraction (log2)
1,HMAAAQILRAAVLRVPAEETMRFVTETPELRRYLGASLGPTAAIVRPGQEQNLAAALQSHGILVEFDE,-0.0423
2,HMAADLIGLEARVTLPLTEDQRGFIETSVRGSLVRRAALSASGRLDRGQRVVILRSEGTTLIVDAL,-3.37
3,HMAADRRKAERPLIDGQAVMDRFEVGPGPMVGKALKFLLALKRAEPDLDLAGTEERLDAWWNEQL,0.0606
4,HMAAEFERKNGIVYFFHSSEKPHLNYPHVHARYGEDTISISLRDFTVIGSFSSKKKQKEAVEYVKNK,-0.829
5,HMAAEPDQQLIKPASDPVLRTMKIEELMKMSEQVKIQMSKAAKNFDYLEAARLRDEHFALENLIKLRS,-0.106
6,HMAAGELSGEALIALIERHPMALSALATTFGHSESDLRAFVEPLARQGRLRLFESQGTLFVGGIG,-0.5
7,HMAAHHIILEEREQLSVSGVEEVESFDENTIVMLTNRGTLIVRGEELHIEKLSLDGGDLRVEGSIDSLTYE,-0.465
8,HMAAHWANFLEALRAGRARRVLVARGVEGWLLKELERLGAPYTLVPRIELDTLLRTTHHQGIAAEVE,-1.46
9,HMAAPELLTVRERQVAALISDGLSNQQIAHRLHLEVTTVKAHIGSIFNRLDMNNRVQIAIWAHDRQLVFS,-0.161
10,HMAAQDIILKRNAEQIEAIVKEITDTDVKYRKFTNTEGVTYSIRRSEVFSITYENGTMDLFA,0.248
11,HMAAQDLIVKTDASQVEARVLEISPDAVRYKRFSNPDGPTYVLPVAEIRYIRYANGEVEYYA,-0.624
12,HMAAQLAHVPAVTGRPLAEAQRILADNRLNAQVTQQPVAEPKLDGVVIAQKITEGTRTMRGATVPLIVGKY,-0.00421
13,HMAASGTVNSGGDPLRVRADPNTSSQILTKLSDGTQVEVLEQAENGWYKIAHEGISGFVSGEYLVVH,0.0197
14,HMAAVAPPVLERIASDLATRFAGTLSPETVDRYVRESYHLLAERAGITRYLPSLTARFAGDRLDA,0.0295
15,HMAAVEDLPVKSVNGKKYHYYTVQPKESLYSLSHKLGISRQEIIKYNPGVEDGLKAYEDLLFPYTPK,0.192
16,HMAAVSTDEEFAALGIPAEWIPVLKSNGFQTVESLKKVAPGALFNQLGGLRKKNKLEIAMPSLDQVKAWLA,0.333

row,Sequence,soluble fraction (log2)
1,HMADDFISTLFSEGIIIDTEVKQFAERQGSPLQFVRHIASNLPEPRDIITMGEVRSVMREGA,-0.00121
2,HMADEEEIMVPQVVGKTYDEAKSELENAGFKVEKNEKTSDKASGTVISQSINGGAKKGTSVTLTVSKGN,0.0356
3,HMADFYEVLGVERNASSDQIKRAYRKLARELHPDVNLDPVAQNRFKEVTEAYEVLSDPNKRSNFDRG,0.0366
4,HMADGEWAEMQRQLTAAGLLVVGRAAQERIQRLSDISPLIEAAQRSNVVMLSERTVDEVLTLVPT,-0.225
5,HMADGTSIYAEREVLYVTSPTANTAKVYNVSGALVRTMTLSAGQTVRTALPAGFYVVALGNGNTHKVIV,-2.4
6,HMADKSLLELPGLDGDKVSALVTAGVRNVNDLADLATDELVEKTGFDEKTAADLIIAARAVVY,0.43
7,HMADLNQTDIDSITKSVGGVEQYKSLMDWAGKTLSQDAIDSFDDLVNTGNKGSIQLAVNGLVAQYQNDN,0.167
8,HMADMKIHLRPYAHDTNRWHVDIRLMHPTAATEIRKRLVAPAGLSEAQARAWGERQVPTILGKALGVI,-1.65
9,HMADNILPAQTDAIKALATENGFSNESLEKYLIENYGTTIYGLSRNQGIQIINLFQSENPPKP,0.277
10,HMADQIIEGILGKEGGYVNNPNDKGGPTRWGITQTTARAYGYSGDMKALPRDTAKAIYLSQYWT,-0.0711
11,HMADTPQAYIRQMVQEAGADGIMLSTITDRLRARFKDFKVRDLGYAQMRQYMASTGTYDLEKSGRNFRVHL,-1.06
12,HMADTSLDHLGVLVRHASDVDAWAEFFENRGVTLASQPRTHRDGARSFYVDDPDGNRVQVIYHPPI,-0.779
13,HMADWTETELAALRRAYASGTTRVSYDGKSVDYGSAEDLLSRIRTLQGAASDVAADAVAAVDA,-0.0473
14,HMADYSMDDNAWNAKKADIDEWFEANPDFSANKAITDGLFSIGDSQVEMRKRYWASIAGVFAGLPNSPIG,0.0121
15,HMAEANTEADFVAIGVRAELLPILQKLGVHTIEQLKGIKATKLFNDIPGMRKKLKLDAVQNPTLQEIEGWL,-0.146
